In one assay the target is PCIF1 (endogenous, MIN6) (UniProt Q6ZWS8). Put plainly: Duolink proximity ligation assay. The conditions noted are these: reference: DMSO, sites T231,S232.
Another assay concerns the target PCIF1 (human; SPOP) (UniProt O43791). Put plainly: GST pull-down, 35S autoradiography. The conditions noted are these: sites T231,S232.
Assay [1] concerns the target T1, GST-PDX-1 T231D/S232E (CK2-phosphomimicking mutant) (mouse, UniProt P52946 1-284, T231D | S232E).
T1 construct: 'Full-length mouse PDX-1' is said of the FLAG construct; also called D/E mutant; source: bacterial expression vector pGEX-4T-1, purified
Put plainly: pull-down; 10 ug purified GST-tagged PDX-1 immobilised on GSH-sepharose in PBS-T (PBS pH 7.4, 1% Tween 20), incubated 2 h at 4 °C with 7.5 uL in vitro translated [35S]-methionine labeled PCIF1; SDS-PAGE, Coomassie and autoradiography. The conditions noted are these: one partner purified.

The values below come from paper PMC5374406, “The Phosphorylation of PDX-1 by Protein Kinase CK2 Is Crucial for Its Stability” (Pharmaceuticals, 2016).

T1 sequence (P52946 whole entry T231D/S232E): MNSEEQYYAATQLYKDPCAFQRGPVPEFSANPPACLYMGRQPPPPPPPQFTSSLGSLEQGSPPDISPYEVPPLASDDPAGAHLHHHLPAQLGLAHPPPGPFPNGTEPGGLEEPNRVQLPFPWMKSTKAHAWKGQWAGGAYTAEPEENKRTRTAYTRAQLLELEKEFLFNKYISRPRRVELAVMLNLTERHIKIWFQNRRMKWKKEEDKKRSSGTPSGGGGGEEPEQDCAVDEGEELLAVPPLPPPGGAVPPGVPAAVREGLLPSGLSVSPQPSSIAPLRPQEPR

In the case of “PDX-1 (from UniProt P52946) 10 µM CX-4945, 5 mM glucose”, in the assay with PCIF1 (endogenous, MIN6) (5 mM glucose), the percent of reference entry is on record as “weaker; reference 100”.

Turning to “PDX-1 (from UniProt P52946) 10 µM CX-4945, 25 mM glucose”, in the assay with PCIF1 (endogenous, MIN6) (25 mM glucose), the percent of reference result is given as “weaker; reference 100”.

“PDX-1 (from UniProt P52946) GST-PDX-1 T231D/S232E”: the fold change in the assay with PCIF1 (human; SPOP) (reference: GST-PDX-1 T231A/S232A) and with PCIF1 (human; SPOP) (reference: GST-PDX-1 wild type) was 1.5 in each case.

B1: PCIF1 (human), in vitro translated and [35S]-methionine labeled, from pET28a-PCIF-1 (natural protein, UniProt O43791 1-374, looked up)
chain: MSRVPSPPPPAEMSSGPVAESWCYTQIKVVKFSYMWTINNFSFCREEMGEVIKSSTFSSGANDKLKWCLRVNPKGLDEESKDYLSLYLLLVSCPKSEVRAKFKFSILNAKGEETKAMESQRAYRFVQGKDWGFKKFIRRDFLLDEANGLLPDDKLTLFCEVSVVQDSVNISGQNTMNMVKVPECRLADELGGLWENSRFTDCCLCVAGQEFQAHKAILAARSPVFSAMFEHEMEESKKNRVEINDVEPEVFKEMMCFIYTGKAPNLDKMADDLLAAADKYALERLKVMCEDALCSNLSVENAAEILILADLHSADQLKTQAVDFINYHASDVLETSGWKSMVVSHPHLVAEAYRSLASAQCPFLGPPRKRLKQS
modifications: [35S]-methionine labeled
notes: PCIF1 / SPOP, human cDNA cloned into the BamH1/Xho1 sites of pET28a; wild-type form; The tags are inferred from the vector and cloning sites; also called SPOP; source: in vitro translated (Promega) from pET28a-PCIF-1
For the molecule B1, the “fold binding against wild-type or the AA mutant” value in assay [1] turned out to be 1.5 fold.
